Patent US12377176B2, “Cancer diagnostic imaging agents” (Technische Universität München, priority 2019, dated 2025)
Several values for one entry are separate records, joined by “and”; a condition that tells them apart may be missing. Equal entries are not always repeated.

Columns and labels:
[1] = Preclinical dosimetry in SCID mice, extrapolated to 70-kg Standard Adult (OLINDA/EXM 1.0); format: in vivo; conditions: extrapolated from mice
Protocol: 3-5 mice were injected per timepoint with a mean 25.6±3.6 MBq of 18F-rhPSMA-7 and 28.5±4.8 MBq of 18F-rhPSMA-7.3, respectively. Mice, severe combined immunodeficiency (SCID) were used for the experiments.
Urine, blood, heart, lung, spleen, pancreas, liver, stomach (emptied), small intestine (emptied), large intestine (emptied), kidneys, bladder, testis, fat, muscle (partial, femoral), femur, tail and brain. Urine was collected with a pipette in the CO2 gas chamber. In case of missing urination in the chamber the bladder was aspirated with an insulin syringe. Blood was withdrawn instantly after sacrifice with an insulin syringe from the heart. All other tissues and organs were dissected and transferred directly in plastic containers.
The counting rates of measurement samples were automatically corrected for decay. The radioactivity distribution ratios (unit: percentage of the injected dose (% ID) in the measurement samples were determined using the equation below. The sum of the counting rates from all measurement samples obtained from one mouse was designated as the counting rate for administrated radioactivity.
For consistency of statistical calculations for each radiotracer the same number of time-points for ^18F-rhPSMA-7 and ^18F-rhPSMA-7.3 was used. Therefore, for ^18F-rhPSMA-7 the 10 min and 20 min time points were combined creating a 15 min endpoint.
In brief, to calculate a human dosimetry from the biodistribution in the mice, an extrapolation was necessary to account for the differences between the animals and humans. Normal-organ radiation doses were estimated for the 70-kg Standard Adult anatomic model using time-depending organ activity concentrations (in percent of the injected dose per gram, % ID/g) and total-body activities measured in the biodistribution studies in mice.
Tissue activity concentrations in mice were converted to tissue fractional activities in the 70-kg Standard Adult using the relative fractional organ masses in the Standard Adult and the “standard” 25-gramm mouse. Time-dependent total-body activity was fit to an exponential function and the difference between the injected activity and the total-body activity was assumed to be excreted to the urine because activity concentrations in the liver and GI tracer were low at all time points studied.
Organ residence time was calculated by numerical integration using the trapezoidal rule and the rest-of-body ^18F residence times was calculated as the difference between the total-body residence time and the sum of the organ and urine residence times. The bladder contents residence time was estimated using the dynamic voiding model in the OLINDA/EXM 1.0 dosimetry software. Finally, the Standard Adult mean organ dose equivalents (in mSv/MBq) and effective dose (also in mSv/MBq) were then calculated using OLINDA/EXM 1.0.

HSA = target: T1, HSA (Homo sapiens, UniProt P02768); experiment: HSA binding on Chiralpak HSA column; format: in vitro ADME; conditions: Chiralpak HSA column (50 × 3 mm, 5 μm), (n = 6)
T1 construct: purchased H13H-2433
T1 sequence (P02768 25-609): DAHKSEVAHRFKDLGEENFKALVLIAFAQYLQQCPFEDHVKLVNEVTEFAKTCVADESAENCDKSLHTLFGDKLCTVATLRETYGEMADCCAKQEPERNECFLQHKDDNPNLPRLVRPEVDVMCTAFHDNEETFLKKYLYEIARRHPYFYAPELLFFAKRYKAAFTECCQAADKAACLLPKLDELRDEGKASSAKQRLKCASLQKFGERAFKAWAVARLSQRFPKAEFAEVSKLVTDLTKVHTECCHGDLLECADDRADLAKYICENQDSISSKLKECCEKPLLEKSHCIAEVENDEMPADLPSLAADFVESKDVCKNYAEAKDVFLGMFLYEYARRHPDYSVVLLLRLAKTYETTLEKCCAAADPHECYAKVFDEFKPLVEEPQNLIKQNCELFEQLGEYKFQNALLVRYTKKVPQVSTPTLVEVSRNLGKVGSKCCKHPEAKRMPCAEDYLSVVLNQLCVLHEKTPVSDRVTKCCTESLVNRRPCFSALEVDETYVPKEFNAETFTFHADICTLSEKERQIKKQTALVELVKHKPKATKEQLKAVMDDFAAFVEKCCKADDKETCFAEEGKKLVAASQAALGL
Protocol: The mobile phase (A: NH4OAc, 50 mM in water, pH 7 and B: isopropanol) was freshly prepared for each experiment and only used for one day. The column was kept at room temperature and each run was stopped after detection of the signal to reduce the acquisition time. All substances were dissolved in a 0.5 mg/ml concentration in 50% 2-propanol and 50% 50 mM pH 6.9 ammonium acetate buffer. […] All nine reference substances were injected consecutively to establish a non-linear regression with Origin Pro 2016G.

[2] = Human biodistribution and uptake in tumor lesions, PET/CT SUV; format: in vivo; conditions: for ratio SUVmax to background, max / ratio SUVmax to background, mean / ratio SUVmax to background, min / ratio SUVmean to background, max / ratio SUVmean to background, mean / ratio SUVmean to background, min: human PET/CT, background gluteal muscle; for SUVmax mean, bladder / SUVmax mean, bloodpool / SUVmax mean, bone / SUVmax mean, duodenum / SUVmax mean, kidney / SUVmax mean, liver / SUVmax mean, lungs / SUVmax mean, pancreas / SUVmax mean, parotic gland / SUVmax mean, spleen / SUVmax mean, submandibular gland / SUVmean mean, duodenum / SUVmean mean, kidney / SUVmean mean, liver / SUVmean mean, lungs / SUVmean mean, pancreas / SUVmean mean, parotic gland / SUVmean mean, spleen / SUVmean mean, submandibular gland / SUVmax mean, background / SUVmean mean, background / SUVmean mean, bladder / SUVmean mean, bloodpool / SUVmean mean, bone / SUVmax mean, tumor / SUVmean mean, tumor: patients, PET/CT; for SUVmax mean, background / SUVmean mean, background: gluteal muscle; for SUVmean mean, bone: non-diseased bone
Protocol: Human biodistribution was estimated by analysing clinical ^18F-rhPSMA-7- and ^18F-rhPSMA-7.3-PET/CT exams in 47 and 32 patients, respectively.
The mean and maximum standardized uptake values (SUVmean/SUVmax) were determined for background (gluteal muscle), normal organs (salivary glands, blood pool, lung, liver, spleen, pancreas, duodenum, kidney, bladder, bone) and three representative tumor lesions. Tumor uptake was analyzed in 89 lesions (26 primary tumors/local recurrences, 23 bone, 38 lymph node and 2 visceral metastases) and 63 lesions (14 primary tumors/local recurrences, 30 bone, 18 lymph node and 1 visceral metastases) for ^18F-rhPSMA-7 and ^18F-rhPSMA-7.3, respectively.
Organ-background and Tumor-background ratios were calculated.

## CC(C)(C)[Si](F)(c1ccc(C(=O)NC[C@@H](NC(=O)CC[C@@H](C(=O)O)N2CCN(CC(=O)O)CCN(CC(=O)O)CCN(CC(=O)O)CC2)C(=O)N[C@H](CCCCNC(=O)CCC(=O)NCCC[C@@H](NC(=O)CC[C@H](NC(=O)N[C@@H](CCC(=O)O)C(=O)O)C(=O)O)C(=O)O)C(=O)O)cc1)C(C)(C)C [rhPSMA7.3, [^19F][^natGa]D-Dap-S-DOTAGA-rhPSMA7, metal not drawn]
[1]; 1.0 h bladder voiding interval
  Effective Dose: 1.28E−02 mSv/MBq
  Effective Dose Equivalent: 1.85E−02 mSv/MBq
[1]; […] bladder voiding interval
  Effective Dose: 2.17E−02 mSv/MBq
  Effective Dose Equivalent: 2.94E−02 mSv/MBq
HSA
  HSA Binding: 96.9%
[2]; bladder
  ratio SUVmax to background, max: 5.5
  ratio SUVmax to background, mean: 3.1
  ratio SUVmax to background, min: 0.9
  ratio SUVmean to background, max: 6.8
  ratio SUVmean to background, mean: 3.1
  ratio SUVmean to background, min: 0.9
[2]; bloodpool
  ratio SUVmax to background, max: 5.2
  ratio SUVmax to background, mean: 2.8
  ratio SUVmax to background, min: 1.5
  ratio SUVmean to background, max: 4.9
  ratio SUVmean to background, mean: 2.9
  ratio SUVmean to background, min: 1.7
[2]; bone
  ratio SUVmax to background, max: 3.2
  ratio SUVmax to background, mean: 2.0
  ratio SUVmax to background, min: 1.1
  ratio SUVmean to background, max: 3.6
  ratio SUVmean to background, mean: 2.1
  ratio SUVmean to background, min: 1.0
[2]; duodenum
  ratio SUVmax to background, max: 34.3
  ratio SUVmax to background, mean: 16.2
  ratio SUVmax to background, min: 6.9
  ratio SUVmean to background, max: 39.4
  ratio SUVmean to background, mean: 17.1
  ratio SUVmean to background, min: 4.7
[2]; kidney
  ratio SUVmax to background, max: 93.0
  ratio SUVmax to background, mean: 51.8
  ratio SUVmax to background, min: 25.7
  ratio SUVmean to background, max: 95.5
  ratio SUVmean to background, mean: 55.6
  ratio SUVmean to background, min: 27.6
[2]; liver
  ratio SUVmax to background, max: 19.0
  ratio SUVmax to background, mean: 9.7
  ratio SUVmax to background, min: 4.0
  ratio SUVmean to background, max: 20.7
  ratio SUVmean to background, mean: 11.4
  ratio SUVmean to background, min: 4.1
[2]; lungs
  ratio SUVmax to background, max: 1.8
  ratio SUVmax to background, mean: 1.0
  ratio SUVmax to background, min: 0.6
  ratio SUVmean to background, max: 1.8
  ratio SUVmean to background, mean: 1.0
  ratio SUVmean to background, min: 0.6
[2]; pancreas
  ratio SUVmax to background, max: 6.9
  ratio SUVmax to background, mean: 4.1
  ratio SUVmax to background, min: 2.2
  ratio SUVmean to background, max: 7.8
  ratio SUVmean to background, mean: 4.4
  ratio SUVmean to background, min: 2.3
[2]; parotid gland
  ratio SUVmax to background, max: 46.2
  ratio SUVmax to background, mean: 24.7
  ratio SUVmax to background, min: 11.9
  ratio SUVmean to background, max: 44.6
  ratio SUVmean to background, mean: 25.2
  ratio SUVmean to background, min: 12.4
[2]
  SUVmax mean, bladder: 3.1
  SUVmax mean, bloodpool: 2.8
  SUVmax mean, bone: 2.1
  SUVmax mean, duodenum: 16.4
  SUVmax mean, kidney: 51.9
  SUVmax mean, liver: 9.7
  SUVmax mean, lungs: 1.1
  SUVmax mean, pancreas: 4.2
  SUVmax mean, parotic gland: 24.6
  SUVmax mean, spleen: 11.4
  SUVmax mean, submandibular gland: 28.4
  SUVmean mean, duodenum: 11.0
  SUVmean mean, kidney: 35.5
  SUVmean mean, liver: 7.3
  SUVmean mean, lungs: 0.7
  SUVmean mean, pancreas: 2.8
  SUVmean mean, parotic gland: 16.0
  SUVmean mean, spleen: 8.5
  SUVmean mean, submandibular gland: 19.6
  SUVmax mean, background: 1.0
  SUVmean mean, background: 0.7
  SUVmean mean, bone: 1.3
[2]; listed as 18F-rhPSMA-7.3
  SUVmean mean, bladder: 2.0 and 2.0±0.8
  SUVmean mean, bloodpool: 1.9 and 1.8
[2]; tumor lesions
  SUVmax mean, tumor: 44.0
  ratio SUVmax to background, max: 321.2
  ratio SUVmax to background, mean: 43.6
  ratio SUVmax to background, min: 1.7
  ratio SUVmean to background, max: 356.4
  ratio SUVmean to background, mean: 50.8
  ratio SUVmean to background, min: 1.8
[2]; tumor lesions, listed as 18F-rhPSMA-7.3
  SUVmean mean, tumor: 32.5±42.7 and 32.5
[2]; spleen
  ratio SUVmax to background, max: 22.4
  ratio SUVmax to background, mean: 11.4
  ratio SUVmax to background, min: 3.6
  ratio SUVmean to background, max: 28.6
  ratio SUVmean to background, mean: 13.3
  ratio SUVmean to background, min: 3.9
[2]; submandibular gland
  ratio SUVmax to background, max: 62.1
  ratio SUVmax to background, mean: 28.2
  ratio SUVmax to background, min: 14.0
  ratio SUVmean to background, max: 62.3
  ratio SUVmean to background, mean: 30.6
  ratio SUVmean to background, min: 15.7

## [^19F][^natGa]D/L-Dap-R/S-DOTAGA-rhPSMA7 [rhPSMA7-rac]
[1]; 1.0 h bladder voiding interval
  Effective Dose: 1.22E−02 mSv/MBq
  Effective Dose Equivalent: 1.82E−02 mSv/MBq
[1]; […] bladder voiding interval
  Effective Dose: 2.66E−02 mSv/MBq
  Effective Dose Equivalent: 3.56E−02 mSv/MBq
HSA
  HSA Binding: 96.7%
[2]
  SUVmax mean, bladder: 8.5
  SUVmax mean, bloodpool: 2.4
  SUVmax mean, bone: 1.7
  SUVmax mean, duodenum: 14.8
  SUVmax mean, kidney: 44.8
  SUVmax mean, liver: 9.5
  SUVmax mean, lungs: 1.1
  SUVmax mean, pancreas: 3.7
  SUVmax mean, parotic gland: 23.8
  SUVmax mean, spleen: 11.8
  SUVmax mean, submandibular gland: 27.0
  SUVmean mean, bloodpool: 2.0
  SUVmean mean, duodenum: 10.9
  SUVmean mean, kidney: 32.4
  SUVmean mean, liver: 7.0
  SUVmean mean, lungs: 0.7
  SUVmean mean, pancreas: 2.5
  SUVmean mean, parotic gland: 16.9
  SUVmean mean, spleen: 9.1
  SUVmean mean, submandibular gland: 19.6
  SUVmax mean, background: 1.0
  SUVmean mean, background: 0.6
  SUVmean mean, bone: 1.1
[2]; listed as 18F-rhPSMA-7
  SUVmean mean, bladder: 6.3
[2]; tumor lesions
  SUVmax mean, tumor: 27.6
[2]; tumor lesions, listed as 18F-rhPSMA-7
  SUVmean mean, tumor: 20.0±20.2 and 20.0
